In paper PMC6843132, “The Plant NF-Y DNA Matrix In Vitro and In Vivo” (Plants, 2019):

T1: At NF-YB2/NF-YC3 histone fold domain (HFD) dimer (A. thaliana, UniProt Q9FGJ3 24-116; Q9ZVL3 55-148)
T1 construct: Nuclear factor Y subunit B2 (AtNF-YB2), Arabidopsis thaliana, aa 24-116, histone fold domain; Nuclear factor Y subunit C3 (AtNF-YC3), Arabidopsis thaliana, aa 55-148, histone fold domain; Preformed heterodimer; the 6His tag was removed with thrombin before gel filtration; also called AtNF-YB2/AtNF-YC3; HFD subunits; source: E. coli, co-expressed, purified (IMAC, thrombin cleavage, gel …)
T1 sequence (looked up) 1: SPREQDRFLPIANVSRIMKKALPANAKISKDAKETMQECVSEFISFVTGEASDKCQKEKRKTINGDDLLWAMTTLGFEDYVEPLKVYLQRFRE
T1 sequence (looked up) 2: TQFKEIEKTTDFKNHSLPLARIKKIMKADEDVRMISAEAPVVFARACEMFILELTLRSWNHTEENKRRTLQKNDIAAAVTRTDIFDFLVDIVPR


Biological target: T1, At NF-YB2/NF-YC3 histone fold domain …
Assay: native gel or EMSA; NF-YA subunit (60-240 nM) with HFD dimer (30 nM) and Cy5-labelled 31 bp CAB2 CCAAT DNA probe (20 nM); 12 mM Tris-HCl pH 8.0, 50 mM NaCl, 50 mM KCl, 5 mM MgCl2, 30 °C 30 min; 6% polyacrylamide, 0.25X TBE; trimer read out as the shifted DNA complex
Details: both partners purified

| binding result | Binder |
| --- | --- |
| binds | AtNF-YA6-6His (aa 170-237) (domain or fragment, Nuclear factor Y subunit A6 (AtNF-YA6), Arabidopsis thaliana, aa 170-237, evolutionarily conserved domain; source: E. coli, purified (IMAC); not shown: His6, C-terminal, kept) not shown |
| binds | AtNF-YA2-6His (aa 134-207) (domain or fragment, Nuclear factor Y subunit A2 (AtNF-YA2), Arabidopsis thaliana, aa 134-207, evolutionarily conserved domain; source: E. coli, purified (IMAC); not shown: His6, C-terminal, kept) not shown |
